The values below come from patent publication US20140120115A1 (MorphoSys, published 2014).

Test [1] addresses T1, recombinant human D-dopachrome tautomerase (D-DT) (human, UniProt P30046 2-118, biotinylated (Amersham ECL Protein Biotinylation kit; sites not stated)).
T1 construct: Used biotinylated on neutravidin plates; also called human D-DT
As to the kind of experiment: ELISA, IgG at 6.25 nM on biotinylated human D-DT on neutravidin plate. On the procedure:
(§1) Cross-reactivity of antibodies to human MIF and human D-DT was determined by ELISA. Biotinylated recombinant human MIF or D-DT with a concentration of 1 μg/ml were coated on reacti-bind neutravidin coated black 384-well plates (Thermo Scientifc) for 1, 5 h at room temperature. Reacti-bind neutravidin plates had been pretreated with PBS/5% skim milk powder before. After washing with PBST purified IgGs were applied in a concentration of 6.25 nM on a MIF or a D-DT coated plate respectively and incubated for 2 hours at room temperature. After subsequent washing antigen-specific bound IgG was detected via AP-Goat-anti-human IgG Fc-γ fragment specific (Fa Jackson ImmunoResearch) secondary antibody and application of Attophos (Fa ROCHE) according to the manufacturer's manual. Fluorescence intensity was measured via Tecan Reader GeniosPro and fluorescence intensity for the individual clones was compared to control antibody.

In test [2] the target is T2, recombinant human macrophage migration inhibitory factor (MIF) (human, UniProt P14174 2-115, biotinylated (Amersham ECL Protein Biotinylation kit; sites not stated)).
T2 construct: also called human MIF; biotinylated MIF
As to the kind of experiment: ELISA, IgG at 6.25 nM on biotinylated human MIF on neutravidin plate. On the procedure:
as §1

For test [3], the target named is T2, recombinant human macrophage migration …. As to the kind of experiment: ELISA, antibody at 6.25 nM on recombinant MIF (FIG. 2). How it is done:
as §1
A general note: ELISA stands for enzyme-linked immunosorbent assay.

Test [4] has the same target. As to the kind of experiment: ELISA; lower end of the group's range, tied to C on MIF by Table 2. On the procedure: (§2) For further characterization, the EC₅₀ concentration for each of the cross-reactive antibodies to MIF and to D-DT was determined based on the ELISA setting according to Example 1. Concentrations of each of the individual antibodies were titrated and 8 distinct concentrations from 0 nM to 166 nM were applied side by side on a plate coated with MIF and a plate coated with D-DT. Biotinylated recombinant human MIF or D-DT with a concentration of 1 μg/ml were coated on reacti-bind neutravidin coated black 384-well plates (Thermo Scientifc) for 1, 5 h at room temperature. Reacti-bind neutravidin plates had been pretreated with PBS/5% skim milk powder before. After washing with PBST purified IgGs were added to the MIF or D-DT coated plate respectively and incubated for 2 hours at room temperature. After subsequent washing antigen-specific bound IgG was detected via AP-Goat-anti-human IgG Fc-γ fragment specific (Fa Jackson ImmunoResearch) secondary antibody and application of Attophos (Fa ROCHE) according to the manufacturer's manual. Fluorescence intensity was measured via Tecan Reader GeniosPro and fluorescence intensity for the individual clones was plotted in a typical antibody titration curve. EC₅₀ values were determined with the program GraphPad Prism using non-linear regression analysis.

Test [5] has the same target. The test is described as follows: ELISA, IgG titrated (0-166 nM) on biotinylated human MIF on neutravidin plate. On the procedure:
as §2

The target of test [6] is T1, recombinant human D-dopachrome …. As to the kind of experiment: ELISA, IgG titrated (0-166 nM) on biotinylated human D-DT on neutravidin plate. On the procedure: as §2
Test [7] shares this target. As to the kind of experiment: ELISA, antibody at 6.25 nM on recombinant D-DT (FIG. 2). How it is done: as §1
For test [8] the target is unchanged. The test is described as follows: ELISA; upper end of the group's range, tied to A on D-DT by Table 2. On the procedure:
as §2

T2 sequence (P14174 2-115 limits assumed): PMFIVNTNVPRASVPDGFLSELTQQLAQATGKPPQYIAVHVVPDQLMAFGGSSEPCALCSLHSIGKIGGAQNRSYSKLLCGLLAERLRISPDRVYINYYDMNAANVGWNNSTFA
T1 sequence (P30046 2-118 limits assumed): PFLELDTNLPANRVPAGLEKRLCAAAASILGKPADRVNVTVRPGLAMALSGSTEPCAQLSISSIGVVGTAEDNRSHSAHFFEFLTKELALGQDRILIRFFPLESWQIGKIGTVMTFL

B1: MOR014138 (antibody, V domains shown)
VH: QVQLVQSGAEVKKPGSSVKVSCKASGGTFTSYAIHWVRQAPGQGLEWMGRIIPHFGTAYYAQKFQGRVTITADESTSTAYMELSSLRSEDTAVYYCARVQVYMSVLGWGYENYMDVWGQGTLVTVSS
VL: DIVLTQSPATLSLSPGERATLSCRASQSVSAFQLGWYQQKPGQAPRLLIYGASTRATGIPARFSGSGSGTDFTLTISSLEPEDFAVYYCQQYIQYPYTFGQGTKVEIKR
notes: also called antibody C
For orientation: EC50 means the concentration at which the effect is half-maximal. On to B1, for which the “fold signal intensity compared to the negative control” value (“fold signal intensity” below) in test [1] and in test [2] was at least 5 fold throughout. The “fold fluorescence intensity above background” value in test [3] and in test [7] was over 5 fold each time. Also, the EC50 stood at 0.3 nM in test [4], 0.36 nM in test [5] and 2.29 nM in test [6].

B2: MOR014116 (antibody, V domains shown)
VH: QVQLVQSGAEVKKPGSSVKVSCKASGGTFSDYAISWVRQAPGQGLEWMGLIIPLFGTANYAQKFQGRVTITADESTSTAYMELSSLRSEDTAVYYCARSPAYQLVTPYYYVSDWFDVWGQGTLVTVSS
VL: DIVLTQPPSVSGAPGQRVTISCSGSSSNIGSNYVSWYQQLPGTAPKLLIYDNSERPSGVPDRFSGSKSGTSASLAITGLQAEDEADYYCQSWDASPWSYVFGGGTKLTVLG
notes: also called antibody B
For B2, the “fold signal intensity” value in test [1] and in test [2] was at least 5 fold in each case. In addition, the “fold fluorescence intensity above background” value in test [3] and in test [7] was over 5 fold in each case. Also, the EC50 worked out at 0.486 nM in test [5] and 8.47 nM in test [6].

B3: MOR014093 (antibody, V domains shown)
VH: QVQLLESGGGLVQPGGSLRLSCAASGFTFSDYYMDWVRQAPGKGLEWVSAISSSGSTTYYADSVKGRFTISRDNSKNTLYLQMNSLRAEDTAVYYCARGNLFGSTYVMGFDHWGQGTLVTVSS
VL: DIELTQPPSVSVSPGQTASITCSGDSIGSTHVSWYQQKPGQAPVLVIYRKSNRPSGIPERFSGSNSGNTATLTISGTQAEDEADYYCSSWDSESVVFGGGTKLTVLG
notes: also called antibody A
Turning to B3, the “fold signal intensity” value in test [1] and in test [2] was at least 5 fold throughout. In addition, the “fold fluorescence intensity above background” value in test [3] and in test [7] was over 5 fold each time. Moreover, the EC50 in test [5] was 1.14 nM; in test [6] it was 21.2 nM; in test [8], 22 nM.
